Values belong to the molecule of their own block, whether it stands above or below them. Where no end group is shown, it is not given here.
Experiments:
Set1 = Set1 (UniProt P38827); experiment: biotinylated peptide pull-down, immunoblot; settings: reference: unmodified H3 (1-23) peptide; sites T11
Set2 = Set2 (UniProt P46995); experiment: biotinylated peptide pull-down, immunoblot; settings: reference: unmodified H3 (1-23) peptide; sites T11
Dot1 [1] = target: Dot1 (UniProt Q04089); experiment: biotinylated peptide pull-down, immunoblot; settings: reference: unmodified H3 (1-23) peptide; sites T11
Dot1 [2] = target: Dot1 (UniProt Q04089); experiment: H3-FLAG nucleosome IP, Dot1 blot; settings: reference: WT H3-FLAG; sites T11
Dot1 [3] = target: Dot1 (UniProt Q04089); experiment: Dot1-FLAG IP, anti-H3/H4 blot of nucleosomes; settings: reference: wild type H3; sites T11
[4] = target: T1, purified endogenous SIR complex (Sir2-FLAG) (S. cerevisiae (endogenous in yeast), UniProt P06700 1-562; P06701 1-978; P11978 1-1358); experiment: pull-down; 1.0 µg biotinylated histone peptide incubated with 1 µg purified SIR complex (Sir2-FLAG) in 50 mM Tris-HCl pH 7.5, 250 mM NaCl, 0.1% NP-40, overnight at 4 °C; Streptavidin beads; immunoblot; settings: both partners purified
T1 construct: NAD-dependent histone deacetylase Sir2, S. cerevisiae; Sir3, S. cerevisiae; named as a subunit of the SIR complex in the introduction; Sir4, S. cerevisiae; also called silent information regulator complex; not shown: FLAG, C-terminal, kept; copies: + +
T1 sequence (P06700 whole entry, chain 1 of 3): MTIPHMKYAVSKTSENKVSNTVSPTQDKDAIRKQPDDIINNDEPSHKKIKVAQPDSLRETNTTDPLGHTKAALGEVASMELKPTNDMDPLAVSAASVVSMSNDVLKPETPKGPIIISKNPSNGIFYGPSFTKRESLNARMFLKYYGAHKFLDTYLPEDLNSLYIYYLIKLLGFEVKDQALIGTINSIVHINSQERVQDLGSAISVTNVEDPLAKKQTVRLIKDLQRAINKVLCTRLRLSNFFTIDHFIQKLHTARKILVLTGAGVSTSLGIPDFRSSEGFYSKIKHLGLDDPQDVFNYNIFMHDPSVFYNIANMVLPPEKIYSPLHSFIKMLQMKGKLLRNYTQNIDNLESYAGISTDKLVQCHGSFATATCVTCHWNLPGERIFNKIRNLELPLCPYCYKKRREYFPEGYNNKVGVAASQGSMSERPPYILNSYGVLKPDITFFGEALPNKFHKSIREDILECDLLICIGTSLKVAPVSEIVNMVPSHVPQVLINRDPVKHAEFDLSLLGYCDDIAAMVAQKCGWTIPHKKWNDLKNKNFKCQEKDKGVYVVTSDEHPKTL
T1 sequence (P06701 whole entry, chain 2 of 3): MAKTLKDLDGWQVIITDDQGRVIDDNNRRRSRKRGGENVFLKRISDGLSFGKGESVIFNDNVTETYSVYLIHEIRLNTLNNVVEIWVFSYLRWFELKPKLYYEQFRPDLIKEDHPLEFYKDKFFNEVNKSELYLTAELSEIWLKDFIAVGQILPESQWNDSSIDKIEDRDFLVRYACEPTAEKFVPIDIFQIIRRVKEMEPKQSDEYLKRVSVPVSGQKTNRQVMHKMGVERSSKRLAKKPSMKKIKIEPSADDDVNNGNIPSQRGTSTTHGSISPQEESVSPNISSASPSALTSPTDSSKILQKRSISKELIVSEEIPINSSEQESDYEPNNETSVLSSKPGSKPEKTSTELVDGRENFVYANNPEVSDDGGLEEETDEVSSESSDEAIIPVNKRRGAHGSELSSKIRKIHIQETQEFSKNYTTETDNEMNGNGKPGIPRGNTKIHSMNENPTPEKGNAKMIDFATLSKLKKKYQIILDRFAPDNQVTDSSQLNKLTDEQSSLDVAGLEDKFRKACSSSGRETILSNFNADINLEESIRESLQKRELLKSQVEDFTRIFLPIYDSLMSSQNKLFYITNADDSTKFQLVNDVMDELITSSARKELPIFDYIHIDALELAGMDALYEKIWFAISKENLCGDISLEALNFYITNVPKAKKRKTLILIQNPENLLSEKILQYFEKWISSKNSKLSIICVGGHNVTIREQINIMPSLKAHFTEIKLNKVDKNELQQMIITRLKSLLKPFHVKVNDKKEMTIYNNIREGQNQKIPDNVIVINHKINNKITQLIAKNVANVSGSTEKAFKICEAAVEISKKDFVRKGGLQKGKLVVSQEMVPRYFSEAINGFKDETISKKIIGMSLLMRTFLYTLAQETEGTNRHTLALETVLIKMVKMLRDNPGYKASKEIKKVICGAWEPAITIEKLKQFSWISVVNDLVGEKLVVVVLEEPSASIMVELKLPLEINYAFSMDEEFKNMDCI
T1 sequence (P11978 whole entry, chain 3 of 3): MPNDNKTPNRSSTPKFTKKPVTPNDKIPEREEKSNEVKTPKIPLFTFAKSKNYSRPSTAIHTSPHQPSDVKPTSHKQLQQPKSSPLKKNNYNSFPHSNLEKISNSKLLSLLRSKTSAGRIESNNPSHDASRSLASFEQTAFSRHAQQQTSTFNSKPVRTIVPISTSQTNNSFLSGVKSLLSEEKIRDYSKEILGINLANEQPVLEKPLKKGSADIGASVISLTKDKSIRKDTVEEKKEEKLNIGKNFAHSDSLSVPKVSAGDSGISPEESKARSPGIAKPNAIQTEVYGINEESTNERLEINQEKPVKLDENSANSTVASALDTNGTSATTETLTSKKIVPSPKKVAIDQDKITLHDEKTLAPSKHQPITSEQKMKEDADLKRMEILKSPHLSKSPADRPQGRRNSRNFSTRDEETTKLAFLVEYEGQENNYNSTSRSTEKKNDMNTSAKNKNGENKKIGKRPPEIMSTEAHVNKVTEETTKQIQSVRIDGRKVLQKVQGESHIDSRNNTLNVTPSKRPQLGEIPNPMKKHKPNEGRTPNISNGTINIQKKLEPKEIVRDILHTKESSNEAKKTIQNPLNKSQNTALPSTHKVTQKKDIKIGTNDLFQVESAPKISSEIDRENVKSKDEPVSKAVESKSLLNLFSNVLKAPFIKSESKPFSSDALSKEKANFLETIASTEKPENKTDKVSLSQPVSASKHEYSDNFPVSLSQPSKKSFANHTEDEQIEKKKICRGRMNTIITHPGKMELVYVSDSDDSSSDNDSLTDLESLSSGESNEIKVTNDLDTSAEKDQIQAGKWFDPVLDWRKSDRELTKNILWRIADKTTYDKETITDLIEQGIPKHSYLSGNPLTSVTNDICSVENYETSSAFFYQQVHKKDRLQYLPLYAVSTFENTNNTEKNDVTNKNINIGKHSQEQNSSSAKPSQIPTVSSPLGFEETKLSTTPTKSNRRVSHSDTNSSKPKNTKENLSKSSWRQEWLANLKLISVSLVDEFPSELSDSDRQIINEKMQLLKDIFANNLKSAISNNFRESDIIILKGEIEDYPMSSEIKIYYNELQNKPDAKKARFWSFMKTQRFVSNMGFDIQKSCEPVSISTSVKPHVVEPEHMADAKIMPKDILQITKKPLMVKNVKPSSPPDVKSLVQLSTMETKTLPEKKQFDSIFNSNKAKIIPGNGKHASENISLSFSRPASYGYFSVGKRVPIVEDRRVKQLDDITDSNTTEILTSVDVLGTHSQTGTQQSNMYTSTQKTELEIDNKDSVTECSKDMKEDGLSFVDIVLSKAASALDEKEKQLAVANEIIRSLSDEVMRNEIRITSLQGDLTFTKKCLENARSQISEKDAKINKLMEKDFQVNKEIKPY

Molecule: histone H3 1-23 (from UniProt P61830) H3pT11 (1-23) peptide
binding against the reference (Set1): same
binding against the reference (Set2): same
binding against the reference (Dot1 [1]): weaker

Molecule: histone H3 (from UniProt P61830) H3T11A
binding against the reference (Dot1 [3]): stronger

The next lines start with the values.

binding against the reference (Dot1 [2]): stronger
Molecule: histone H3 (from UniProt P61830) H3T11A-FLAG

binding result [4]: binds
B1: Unmodified H3 (72–85) peptide (peptide)
peptide: REIAQDFKTDLRFQ
modifications: also: biotin (position not given here)
notes: histone H3 residues 72-85; also called unmodified H3 peptide; source: synthetic peptide (biotinylated histone peptide)
